In patent US20240368260A1 (INSTITUT NATIONAL DE LA SANTE ET DE LA RECHERCHE MEDICALE, published 2024):

Columns and labels:
recombinant human βIG-H3 [1] = target: T1, recombinant human βIG-H3 (human, UniProt Q15582 24-683); test: direct ELISA on coated rhβIG-H3, anti-human IgG-HRP
T1 construct: Bought recombinant protein; also called rhβIG-H3; rhbIG-H3
T1 sequence (looked up): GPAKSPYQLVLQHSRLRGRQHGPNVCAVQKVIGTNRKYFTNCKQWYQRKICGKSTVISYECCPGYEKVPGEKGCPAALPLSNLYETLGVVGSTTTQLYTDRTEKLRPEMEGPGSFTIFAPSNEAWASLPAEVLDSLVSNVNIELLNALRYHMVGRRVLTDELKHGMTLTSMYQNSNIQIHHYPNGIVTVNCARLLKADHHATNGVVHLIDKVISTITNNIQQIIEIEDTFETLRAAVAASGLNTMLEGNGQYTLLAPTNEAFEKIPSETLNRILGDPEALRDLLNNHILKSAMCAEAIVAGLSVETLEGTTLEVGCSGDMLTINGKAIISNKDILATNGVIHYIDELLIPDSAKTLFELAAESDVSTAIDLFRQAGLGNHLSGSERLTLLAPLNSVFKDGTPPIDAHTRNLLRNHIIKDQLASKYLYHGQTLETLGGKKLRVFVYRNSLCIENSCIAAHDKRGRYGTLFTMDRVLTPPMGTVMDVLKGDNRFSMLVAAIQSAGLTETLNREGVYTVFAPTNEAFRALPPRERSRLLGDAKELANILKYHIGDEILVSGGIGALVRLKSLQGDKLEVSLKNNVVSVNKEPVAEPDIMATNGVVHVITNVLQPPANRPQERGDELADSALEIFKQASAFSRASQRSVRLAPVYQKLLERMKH

recombinant human βIG-H3 [2] = target: T1, recombinant human βIG-H3; test: SPR single cycle kinetics, mAb captured via anti-human IgG (Fc) on CM5, hβIG-H3 5-100 nM as analyte, 1:1 model; SCK2 Fc4
Description: (§1) Anti-Human IgG (Fc) antibody is chemically grafted on a CM5 sensorchip using amine coupling according to the Cytivia 22064888AF notice. Briefly, surface is first activated by injection of a NHS-EDC mixture. Then, several injections (3 on the 10 available on the kit) of Anti-Human IgG (25 μg/ml in immobilization buffer) adjusting the contact time are performed. Finally, the surfaces are deactivated with ethanolamine 1M pH 8.5.
(§2) A negative control Ab is immobilized on sensor flowcell 1 (Fc 1) and positive control (chimeric 18B3 mAB) on Fc 2. 18B3 variants Abs are immobilized on Fc3 and Fc4:
(§3) Injection of increasing concentrations (5; 10; 25; 50; 100 nM) of antigen (hβIG-H3) during 180 s is performed on each flowcell. Short dissociations are performed in RB between each antigen concentration. After injection of the highest antigen concentration (100 nM), a dissociation in RB is recorded during 3600 s. [0348] Three similar cycles with five injections of RB are carried out before the cycle of Antigen in order to perform double subtraction procedure (Blank run). [0349] Three similar cycles with five injection of RB and a dissociation time of 600 s are performed before the blank runs in order to stabilize the system (Startup run).

recombinant human βIG-H3 [3] = target: T1, recombinant human βIG-H3; test: SPR single cycle kinetics, mAb captured via anti-human IgG (Fc) on CM5, hβIG-H3 5-100 nM as analyte, 1:1 model; Fc4, first of two runs (run label misplaced in print)
Description: as §1, §2, §3

ELISA Titer (recombinant human βIG-H3 [1]): 0.0036 µg/mL
Kd (recombinant human βIG-H3 [2]): 171 pM
koff (recombinant human βIG-H3 [2]): 0.000478 s⁻¹
kon (recombinant human βIG-H3 [2]): 2.79e+06 M⁻¹ s⁻¹
Kd (recombinant human βIG-H3 [3]): 120 pM
koff (recombinant human βIG-H3 [3]): 0.000559 s⁻¹
kon (recombinant human βIG-H3 [3]): 4.66e+06 M⁻¹ s⁻¹
B1: 18B3 H330-V1.2/L228-V1 (antibody, human IgG1, kappa, V domains shown)
VH: QVQLVESGGGVVQPGGSLRLSCAASGFTFSDYYMYWVRQAPGKGLEWVATISDGGIYKYYADSVKGRFTISRDSSKNTLYLQMNSLRAEDTAVYYCVRGWDRYDSWFASWGQGTTVTVSS
VL: DIVMTQSPLSLPVTPGEPASMSCRSSQSLLYSSNQKNYLAWYLQKPGQSPQLLIYWGSTRESGVPDRFSGSGSGTDFTLKISRVEAEDVGVYYCQQYYRYPYTFGQGTKLEIKR
notes: also called H-330/L-228 V1.2
